According to patent US20260022364A1, “ERT2 MUTANTS, INDUCIBLE CELL DEATH SYSTEMS, AND USES THEREOF” (Senti Biosciences, Inc., priority 2023, published 2026):

Tests used:
Format in all cases: cell-based
[1] = tested on: dimerization of two modified ER-LBDs; test: Transcriptional reporter assay for dimerization activity; conditions: data not shown
NK cells = test: Validation of ERT2 mutants with mCherry reporter in NK cells; conditions: primary NK cells
Procedure: After 10 days of feeder cell activation, NK cells were co-transduced with ERT2 mutant virus and reporter SB01066 virus (Experimental Set-up 1). On Day 2 after transduction, transduced NK cells were treated with endoxifen or 4-OHT at a range of concentrations of 0 nM, 0.01 nM, 0.1 nM, 1 nM, and 10 nM. On Day 4, cells were checked for mCherry expression by flow cytometry.

HEK293T cells [2] = test: Suicide-switch assay, killing efficiency by incucyte; conditions: for killing efficiency: 48 hours
Procedure: A 24-well dish was seeded with 25,000 Lent-X HEK293T cells (Takara, Catalog #: 632180). The next day, the cells were transduced with 25,000 pg of virus for constructs SB07351-SB07354: ERT2mut-casp9 constructs tagged with mCherry to track successfully transduced cells in a population. The constructs each take the form ERT2*mut-Casp9-IRES-RFP (SB07351=mut81; SB07352=mut88; SB07353=mut63; SB07354=mut41). The next day, transduced cells were split into a 96-well plate with ˜5,000 cells in each well and loaded into an incucyte to quantify cell expansion via images every 2 hours detecting mCherry expression. Media was exchanged 24 hours later with new media with indicated concentration of 4-OHT or no drug added. Cells continued to be imaged by the incucyte every 2 hours for 48 hours post exchange of media.
Cell death was quantified via detection of suicide-switch linked mCherry expression using the following formula:
Killing efficiency=100−((mCherry expression in drug treated population)/(mCherry expression in ND population)) [NOTE: mCherry background prevents 100% KE from being calculated; >95% killing efficiency is considered complete killing in this assay]

primary T cells = test: Killing assay of safety kill switch in transduced primary T cells
Procedure: Primary T cells isolated from a donor were thawed and stimulated with Dynabeads for 24 hours. Next, ERT2*mut81-Casp9-IRES-RFP (SB07351, prepared as lentivirus) was transduced into the T cells. Two days post transduction, cell media were replaced with T Cell media containing IL-2 to promote expansion. 1 week post transduction, cells were quantified for transduction efficiency (Safety kill switch transduction was tracked by expression of RFP tag) by flow cytometry and then loaded into incucyte for quantification of killing efficiency.
• D0-D1: Expansion of cells in drug free T cell media (with IL-2) • D1-onward: Drug free T cell media (with IL-2) was exchanged with media containing indicated drug conditions (as well as IL-2) • Killing efficiency was calculated by the following formula:
1−(RFP expression of cells in drug treated conditions)/(RFP expression of transduced cells in the No Drug condition)

HEK293T cells [3] = test: Time course of ERT2 mutant safety switch activity in HEK cells
Procedure: Twenty-four hours later, ˜3k transduced cells were plated into each well of a 96w plate and cultured in 100 μL of drug-free growth media (DMEM+10% FBS, 1% p-s, 1% Glutamax).
Killing efficiency was calculated by taking the average mCherry area quantified by the incucyte in the drug treated sample divided by the mCherry area quantified in the ND conditions of the same transduced population and subtracting that fraction from 1. 95% KE was defined as complete killing by previous studies with this same mCherry reporter being treated with Puromycin, a toxic drug that results in complete killing of HEK293T cells within 48 hours of application.

B1: SB06136: ZF10-1_p65_ERT2 mutant; L384M/L391V/N413D/M421L/S463P/H524L (protein)
chain: AGDMRAANLWPSPLMIKRSKKNSLALSLTADQMVSALLDAEPPILYSEYDPTRPFSEASMMGLLTNLADRELVHMINWAKRVPGFVDLTLHDQVHLLECAWMEILMIGVVWRSMEHPVKLLFAPNLLLDRDQGKCVEGLVEIFDMLLATSSRFRMMNLQGEEFVCLKSIILLNSGVYTFLPSTLKSLEEKDHIHRVLDKITDTLIHLMAKAGLTLQQQHQRLAQLLLILSHIRHMSNKGMELLYSMKCKNVVPLYDLLLEAADAHRLHAPTSRGGASVEETDQSHLATAGSTSSHSLQKYYITGEAEGFPAT
For B1, the “dimerization of two modified ER-LBDs to 4-OHT” value [1] was “did not directly alter dimerization”, the “4-OHT concentration at which variant was sensitive (mCherry)” value (NK cells) was 0.1 nM and the “endoxifen concentration at which variant was sensitive (mCherry)” value (NK cells) was 0.1 nM.

B2: SB07351: suicide-switch construct ERT2*mut-Casp9-IRES-RFP with mut81 (protein)
chain: B1 chain
For B2, the killing efficiency (HEK293T cells [2]; 0.001 pM of 4-OHT) was ~80%, the killing efficiency (HEK293T cells [2]; down to 0.01 pM of 4-OHT) was > 95% and the “concentration of efficient killing, fold lower than the Ctrough of 4-OHT in humans” value (HEK293T cells [2]; humans taking FDA approved daily dose of Tamoxifen) was 400 ×. The “time to complete killing” value (primary T cells; 2.5 nM Endoxifen & 0.4 nM 4-OHT) was ≤ 48 h, the “cell killing without inducer” value (primary T cells; absence of the small molecule inducer cocktail) was “did not induce cell killing” and the “sensitivity to Estradiol” value (primary T cells; day 5, Estradiol 2.2 pM) was “insensitivity”. For the same molecule, the killing efficiency (primary T cells; day 5, endoxifen 1 pM and higher) was “>= 95%”, the killing efficiency (primary T cells; day 5, endoxifen as low as 0.001 pM) was “Strong killing efficiency” and the “sensitivity to Estradiol” value (primary T cells; over time, 2.2 pM Estradiol) was “insensitive”. For the same molecule, the “killing efficiency and rate compared to the WT ERT2 safety switch” value (HEK293T cells [3]; 0.25 nM endoxifen and 0.04 nM 4-OHT, 2.5 nM endoxifen+0.4 nM 4-OHT) was “greater killing efficiency, and at a faster rate” and the sensitivity to Estradiol (HEK293T cells [3]; 2.5 nM estradiol, long exposure times) was “modest activity at late time points”.
